The source of these data is the DeepSol protein solubility set.

This data set in a line: soluble on expression in E. coli; label from the status in PepcDB or PDB records.
On to “MGSDKIHHHHHHMSQLDMKMKLKQYEQTVIEYLGAQGGHFIVASDDQTFVGILRTTLLKQLAISGDPLTSVTDPDYILKVIRDTSLRRKHLVVFIERMMQGKDTSMLVRQMKNTFANVKIIILTGETERQRLVLLHEIGADNFISKPISINTLIEKIAFTIKPQGKLGQLIDAAKALVAQGNFETALKAARKILEVKPNSAAGYLVMGDAWQGLGKLDKARESFEQASEHANLYMEPLKKLAELHKLTGDMNERLRYLERLDQLSPLNVERKVDMGEIHVELGNEERAEELFETAVQQATKDALNYIGEISEKIAAVYSSRDPHKAEKYYRQALDAKGSHLDHTDIATFNRLGIALRRQGKWQQAIEEYEKALHITPDDPNLMYNMSMAYAEGRQFDKACSIVMRIRQITPSFGSMDKTLSYNMGIIFSRGRQPADARVLFENALRLDPSFEKAQKALENLES”, for which the “soluble on expression in E. coli” value is “not soluble”.
“AHHHHHHGSLHLKEKLKGTTTVGLVCKEGVVLAADTRASLGNIIYAKNVTKIHKIDEHLAIAGAGDVGDILNLVRLLKAEANLYKSTVGKEMSVKALATLLANILNGSKYFPYLGWFLVGGYDEKPRLFSVDMVGGITEDNYAAAGSGMEFAYSILDSEYREEMSVNDGIKLAVKAINVAIKRDVFTGDGLLVVTITKDGYKEYRGAELEKMLK”: the “soluble on expression in E. coli” value is listed as “not soluble”.
Take “MKKLTLREQQLVCLNILDYFHALCERYKISYSLGGGTLIGAIRHKGFIPWDDDIDVYMHRDEYQRFVDVWFQETHEHYNMETAEDILAQYTGEMAKIFDCRTQITDAKGRKSPMFMDIFIYDGVPNEPKIIYPLMKKHRRIKLRFSSCKKRWLRAKENTVQKAILNKLSHFLFSKMQKNLAQFQIKYPIKQCDYIGLVLSDYGGWQKSYMPKEYFNHVIYKEFEGRQFQVMNGYHEHLTQYYGDYMKLPPEEDQKPHHIQEAYILLEHHHHHH”: the “soluble on expression in E. coli” value was “not soluble”.
For the sequence “MGHHHHHHSHMHAPLSLLKQMLKEHQIDTEKAVTFEEYIAMRLKLQELMGKFASIGEWDLYQKAADLMMHIGIQWMK”, the “soluble on expression in E. coli” value was “not soluble”.
With “MHIERLDFENSPYLGVFGVATDRVVLIREGLQEKKLEVIRETLKVPVIEVSVMKSRIIGTLATGNSNAIILPWYVWDAEIERIKKALSEYGIDMEVVPFRSKYTALGNLILTNDKAALVSAKFSRKEAQEIGEILGVEVERGVIAGLHAVGSAGVVTNKGGLVHPETSDEELEWLSDLFKVDVYVGTANMGVPYVGTCMLANSNGVVVGHLTTGPEIVKIEEALGFV” the entry was “soluble”.
With “MGNFYSLGKKEPVIRLLQITDCHLFSSESECLLGINTTETFQAVIEHIHQTDFAYDAVLATGDLIQDHNPEAYHRFAEMAKQFVKPLFWLEGNHDKQPQMSLYLGKHPHIQPEKQLLAGEKWQILLLNSQVAGAPSGYLSAGQLAWLNSKLAKHLDRYALVVLHHNILPTNSAWLDQHCLKNSEQLAKVLKSYRNVKAILHGHIHQEVDRVWQGYRVLATPSTCIQFKPNCRDFTLDMLPQGWREISLLEDGSIETTVKRLASNQFLPDFQSKGY” the entry was “not soluble”; with “ENYLNVKKIENEKNLQISEMSLQYDYYMKQSNDMENIRKISHDIKNHLEALRGNVDYQQKQEYIDGIESKLDIYQSYYKTGNAFLNNLLHAKRLEALEKKIEFKVFADFTPFKRVKNEDLCVIVSNTIDNALRECQLMKADNPKIECLVQLKARKIKGFLSIICENSLRESQAEALRGNLVMETSKEDKKNHGFGVKNIKRVVREYGGEVSFNVVDDMFSVSILIPIEV”, “not soluble”; with “MASLRDIKAKINSTKKTSQITKAMEMVSASKLNRAEQNAKSFVPYMEKIQEVVASIAQGSKGINHPMLNARPVKRTGYIVITSDRGLAGGYNSNVLRTVSNVIRERHNMDSNQYSIIVLGRLGRDYLKRRGFNIIDEVVGLSDHPSFTDIKDLASRAIAMFADGAYDELYIYYNHYVSKISQEVTENKILPLTDVASDKPTTAYEFEPSEEEILKVLLPQYAESLVYGALLDGKASEHAARMTAMKSATDNAMEVIDSLTLSFNRARQAAITQEITEIVGGAAALE”, “not soluble”.
Turning to “KRMYNREKLRKLFDKEETPEVTGLKDNQERFFTYSIRAAHMNINTKSNIKVLKNGEETFPDIFKAMRKAESYIHIEYYMFKSDMLGRGMMDIMMEKARQGVEVRFLYDAAGSMKLARRDIMRMKQAGVDIVPFSPLKYGFFNQKLNFRNHRKIVIIDGKTGFVGGLNVGKEYISRDPYIGFWRDTHLRLEGEIVQTLHAIFMLDWEYVSNEVLIDQEEYNTPVPVEGGGIYQIVATGPDMKESMSDLYYEMISSAQKSIWIATPYFVPNESIRTALKAAATKGVEVRVMVPEKNDSFLTQYASRSYFPELLLEGIEVYSYQKGFMHQKVMIIDGDLASVGTANMDMRSFQLNFEVNVFFTDAEAIRTLEAHFEEDMQESEKLSPVGFYKRGVADR”, the “soluble on expression in E. coli” value is listed as “not soluble”.
With “MSGAYDESAMSDETTDSFWEVGNYKRTVKRIEDGHRLCNDMMSCIQERAKIEKAYSQQLTDWSKRWRQLVERGPQYGTLERAWLAVMTEAEKVSELHQEVKNNLLNEDLEKVKNWQKDAYHKQMMGGFKETKEADEGFRKAQKPWAKKLKELETAKKTYHMACKEEKIASAREANSKGEASVTTDQQKKLQEKVDKCKNDVQKAKEKYEKSLDELNKCTPQYMENMEVVFDQCQQFEEKRLNFLREVLLDTKRHLNLTESQSYATVYRELERTIVSASAQEDLKWFSSVHGPGMHMNWPQFEEFNPDLSHAISKKEKVKRNHDGVTLTQVTHGAEHGTPQTGDRGSVSSYEKNQQYSAEWSDDEQPPTAAQSASETNGGNPFEEDSKGVRVRALYDYEGQEQDELTFKAGDELTKLEDEDEQGWCKGRLDSGQLGLYPANYVEPV” the entry was “not soluble”; with “MPMTLDLQPGQRLARGVARHLRAHGFVSVEEFVPARGLRVDVMGLGPKGEIWVIECKSSRADFQADAKWQGYLEWCDRYFWAVDMEFPAELLPAESGLLIADAYDAEIVRMAPEQKLAPARRKVLIQKFATHAARRLQALRDPEGHG”, “not soluble”; with “ATMTLTDANFQQAIQGDGPVLVDFWAAWCGPCRMMAPVLEEFAEAHADKVTVAKLNVDENPETTSQFGIMSIPTLILFKGGEPVKQLIGYQPKEQLEAQLADVLQ”, “soluble”.
In the case of “MGINERLRHVIEAQKMTIKGFAETVDIPLRSVHNYLSGEREPSADALTKISNKLNINLNWLLLDQGEMYLNQSSDLTLNADEMNLLTQYRQTHDSGKRILQATSKIILDELK”, the “soluble on expression in E. coli” value was “not soluble”.
Consider “MGSDKIHHHHHHMETIKAIHTRHSVRAFKDDPIEPQLLTMIVTDAQQTPSWGNSQPWQVYIATGHALTNIKQHYATAAEQGIAEDADLAKVHRGDFSAFASQNMGHWVGTFRPVIDSDPTTYWDSRANLYRAPAIAYLVLDANPNSWSIYDLGAFSQTLMLAATARGVQSVPSYELVKYPAIVRNALGMPANKVVAMGIALGYEKPEKPLNQFRTDRVATPQVLHIIN”, for which the “soluble on expression in E. coli” value is “not soluble”.
Turning to “MSLRIAVDAMGGDHAPKAVIDGVIKGIEAFDDLHITLVGDKTTIESHLTTTSDRITVLHADEVIEPTDEPVRAVRRKKNSSMVLMAQEVAENRADACISAGNTGALMTAGLFIVGRIKGIDRPALAPTLPTVSGDGFLLLDVGANVDAKPEHLVQYAIMGSVYSQQVRGVTSPRVGLLNVGTEDKKGNELTKQTFQILKETANINFIGNVEARDLLDDVADVVVTDGFTGNVTLKTLEGSALSIFKMMRDVMTSTLTSKLAAAVLKPKLKEMKMKMEYSNYGGASLFGLKAPVIKAHGSSDSNAVFRAIRQAREMVSQNVAALIQEEVKEEKTDEEGGSHHHHHH”, the “soluble on expression in E. coli” value is given as “soluble”.
With “GPGSMACARDHLRQTRTHQRHASTRDGQRMRAVSLAADPACTHPPTHTHTHIYTPIYVCRGFVCVTPQWRTELFNVVLLWRRAHTSLLSAACLCPYAQASPSCLHASFLSRLPRLSLSLSPCSCLHPHSTGVFAYIVFLRCRAATQNTSPVSSCVVRLVTRDLCAQSPTPPLPALCGHRNLVSLHRRKTPRLKRRVRTQATQRSDHRSSLIMPVFHAVMSVKESERVERIAPVKNRAWGLRFQCASCNEESTGMMYVNQTEQHERDGGMHNFVSKCKLCKADITADVLPVPAGTGYYSAEEENPANVIAAFEVRGGRPVELEIDNQWMIVTAGGGLFEDVDLSQEWYDYDESSQATVSVAGVSVDFEKSKKK” the entry was “not soluble”; with “TESGTAAQDPEALAAEIGPVKQVSLGEQIDAALAQQGEQLFNTYCTACHRLDERFIGPALRDVTKRRGPVYIMNVMLNPNGMIQRHPVMKQLVQEYGTMMTDMALSEEQARAILEYLRQVAENQ”, “soluble”; with “MRILYFDCFAGASGDMILGALLDLGIDVGIFKRELAGLNLDGFDIAVEKKVINSIAVTDVNVIVKEECNHHTGHHHHCERNLADIEKIIDESSLKDNVKRLSKKIFSEIARAEAKVHNKSIEDVHFHEVGAIDSIVDIVGTAICLDLLKVDKIYSSPMHDGTGFIECQHGKLPVPVPAVLEMLKESNIPYITEDVNTELLTPTGLGIIKCVASKFGPMPPMTIEKVGYGAGKRQTGRFNALRCILGNAKEKEKIDDEICMLETNIDDMNPEILGYVMNRLFENGALDVFYTPVYMKKNRPGVLLTVLTDKEHEEKLVDIILTETTTLGIRKTTAQRYVLEREIKHVNTEFGKIRVKESSFGDYKKYSPEFEDCKKVAQELKIPLSKVYDAVNKAILVFEERNENALQ”, “soluble”.
As for “GKKCFLTVRGNFSWNEDKIIENDDPRVQYPWMEKRGTNVNGRWGWIAEGLFTSEEEIMDHAKQFGEGHPGQISKVGDIKYKDLNGDGVIDDYDKCLIGQGDVPKIYYGFGADLQLGDFSVGALFAGNAKADRCLGGNAMYPFNDGSGITNLFANITDRWSADNPTNQDVFYPRLHHGNNANQNNMKTSTWWQKDVSFLRLKQLTIAYQLPKKLINQTFLKSARIYVMGTNLLTFSKFKLWDPELNTNNGTAYPNVRTYSVGVNVSF”, the entry is “not soluble”.
On to “MRTVVVIPTYNERDTIERLINDVLAQDKDIHVLVVDDNSPDGTGEIVDRLSEGKGRVHVLHRPGKMGLGSAYRQGFAAALAMDADFIVEMDADYSHDPATLPRFLEAMEGCDLVIGSRYLNGISVVNWPLRRLMLSYFANWYTRLITGLRIMDCTSGFKCFRRRVIESIDMSTIRSDGYSFQIEMNYRCVEKGFQVREIPIIFIDRRSGSSKMSKKIVREAVFMVWKLKLGSVFGALFRLEHHHHHH”, for which the “soluble on expression in E. coli” value is reported as “not soluble”.
With “MKKEQVEKRTYLAVDIGASSGRIMKSQRLANGQITIEEIHRFKNGFHQKDGYQRWDMASLVHELLLGLQKVKQLGIKECFIGIDTWGVDYCLLDQSGQLLDEPIAYRDGRTEAAVTNFSKGYSLEKLYQQTGIQVQPFNTIFQLFVEEKERLAAASQLLLIPDYLGYVFTGKAVIEATNASTTQLLNAGTKQWESELLDFLGIDETLFPTLVEPGTILGDLQTAAFPDYDLPNATLITIASHDTASAILGTPGIGDDWAYISSGTWSLLGIETTVTTISAEAFQENYTNEWGAQNTIRFLKNIMGMWLIQEVARHQNYQYSYAELAALAEKEPAFQQFIDVNDPRFLNPGNMITELQAYCRETQQTVPESPGELARCIYDNLALCYSVELEKLAQLTGIERKITTLHVVGGGSNNRLLNQLTADVANVTVNAGPGEAIALGNLLMQMIATGELKDIPAARTCIQTSFPTEIYQANPIDSTIKNRYQAFMKRSSL” the entry was “not soluble”; with “MVAIDYVVIGAGYAGLMCAEALMDKGFKTLVFDMRESGGEIVVFSKLEEFRSKYEKYIEKIEEIRKDIPVDIGTVIKSKPVIINSGNGLKRYEARRVILATGATDTAPVKLNVLSKKIEGIYTLENALREISENNKIGEKVLIAAKDDVIVKLAESQLSDLGYDVEISELTNDIQVIGKERVEGVEISGVRYSCDTLVVYGGRNPFNPLKLRGTPVGNVVTCTYDYSKVEENVKNFLAKILEHHHHHH”, “not soluble”.
